{"source": "paper PMC9655578", "key": {"[1]": {"substrate": "O=c1cc(-c2ccc(O)cc2)oc2cc(O)cc(O)c12", "test": "purified protein", "settings": "CYP:Pdx:PdR 1:8:2 (P. putida redox partners; CYP 1 µM), 500 µM NADH, phosphate buffer; 3'-hydroxylation"}, "[2]": {"substrate": "O=C1C[C@@H](c2ccc(O)cc2)Oc2cc(O)cc(O)c21", "test": "purified protein", "settings": "CYP:Pdx:PdR 1:8:2 (P. putida redox partners; CYP 1 µM), 500 µM NADH, phosphate buffer; 3'-hydroxylation"}}}
{"protein": "CYP101D5 (Sphingomonas echinoides) (protein) MSAAEEIHTPRPAHVPADRVVELDMYNPQGIEKGYLEAWTSLQTADLPSMVWTPLNGGHWIATRGELIQDIYCDPDHFSSHVIFIPKAAGEKYAMVPSKMDPPEHRPYREVVDKGLNLRAIREREPAVRAHAIALIEAFADKGHCDFVEEFSGEFPIRVFMMMADLPMEDSPKLRAFAAGMTRPEGNTPTEMADALDRANRSFFDYVSPIIDARMGGDGTDILTLSINSQVNGAPMEREKLLGMVSLLLLAGLDTVTNFLNMTMDYLGRHPDKVRELTENPTEIRRGVEELFRRFPLVAAARMVAHDVERDGVELKQGEMVLLPTALHGLDPRVNADPWEVDFQRKRPAHSTFGNGPHRCAGLHLARLETTVMLEEWLKRIPTFRVVPGTGPTYHSGVVASVDGVRLEW", "values": [{"measurement": "Km", "setting": "[1]", "value": "46.28 ± 4.88", "unit": "µM"}, {"measurement": "kcat", "setting": "[1]", "value": 0.0138, "unit": "s⁻¹"}, {"measurement": "Km", "setting": "[2]", "value": "26.39 ± 2.23", "unit": "µM"}, {"measurement": "kcat", "setting": "[2]", "value": 0.0195, "unit": "s⁻¹"}]}
